Measured values taken from PMC5867032, “Interactions of WRKY15 and WRKY33 transcription factors and their roles in the resistance of oilseed rape to Sclerotinia infection”.
Changes are numbered by the printed parent chain.

B1: GCC-box (dsDNA)
DNA 1: CATAAGAGCCGCCACT
DNA 2: AGTGGCGGCTCTTATG
B2: W1m1 probe (dsDNA)
DNA 1: TCAAAGTCTAGGACACATGGTCTGACCATCTCCTCTCCTCCTCTTCTTCTCCATCTTCTAATTTTTTCAACGGTCAAACTT
DNA 2: AAGTTTGACCGTTGAAAAAATTAGAAGATGGAGAAGAAGAGGAGGAGAGGAGATGGTCAGACCATGTGTCCTAGACTTTGA
B3: W1m3 probe (dsDNA)
DNA 1: B2 DNA 1 with T7G, T9A
DNA 2: B2 DNA 2 with A73T, A75C
B4: W1m5 probe (dsDNA)
DNA 1: B2 DNA 1 with A5C, G6C, T7C, C8G, T9G, A10G
DNA 2: B2 DNA 2 with T72C, A73C, G74C, A75G, C76G, T77G
B5: W1m4 probe (dsDNA)
DNA 1: B2 DNA 1 with G6A, T9A
DNA 2: B2 DNA 2 with A73T, C76T
B6: W1m2 probe (dsDNA)
DNA 1: B2 DNA 1 with C8G, T9A
DNA 2: B2 DNA 2 with A73T, G74C
B7: 3x first W-box (W1) (dsDNA)
DNA 1: TCAAAGTCAAGGACTCAAAGTCAAGGACTCAAAGTCAAGGAC
DNA 2: GTCCTTGACTTTGAGTCCTTGACTTTGAGTCCTTGACTTTGA
B8: Mt probe (three W-boxes mutated) (dsDNA)
DNA 1: TCAACCCGGGGGACACATGGTCCCGGGATCTCCTCTCCTCCTCTTCTTCTCCATCTTCTAATTTTTTCAACCCCGGGACTT
DNA 2: AAGTCCCGGGGTTGAAAAAATTAGAAGATGGAGAAGAAGAGGAGGAGAGGAGATCCCGGGACCATGTGTCCCCCGGGTTGA
B9: 3x second W-box (W2) (dsDNA)
DNA 1: TGGTCTGACCATCTTGGTCTGACCATCTTGGTCTGACCATCT
DNA 2: AGATGGTCAGACCAAGATGGTCAGACCAAGATGGTCAGACCA
B10: 3x third W-box (W3) (dsDNA)
DNA 1: CAACGGTCAAACTTCAACGGTCAAACTTCAACGGTCAAACTT
DNA 2: AAGTTTGACCGTTGAAGTTTGACCGTTGAAGTTTGACCGTTG
B11: 33probe (WT) (dsDNA)
DNA 1: B2 DNA 1 with T9A
DNA 2: B2 DNA 2 with A73T
B12: W-box probe (Fig 12b) (dsDNA)
DNA 1: B2 DNA 1 with T9A
DNA 2: B2 DNA 2 with A73T

Molecular target: T1, BnWRKY15 (Brassica napus, UniProt A0A291B474 1-319)
Experiment: competition; unlabelled competitor against Cy5-33probe; Beyotime EMSA binding buffer (composition, pH not stated), 40 nM Cy5 DNA probe, room temperature; 6% native PAGE in ice water bath
Conditions: protein: recombinant; tags: 6xHis (pET-32a fusion); label: unlabelled

T1 sequence (A0A291B474 entry or part of it): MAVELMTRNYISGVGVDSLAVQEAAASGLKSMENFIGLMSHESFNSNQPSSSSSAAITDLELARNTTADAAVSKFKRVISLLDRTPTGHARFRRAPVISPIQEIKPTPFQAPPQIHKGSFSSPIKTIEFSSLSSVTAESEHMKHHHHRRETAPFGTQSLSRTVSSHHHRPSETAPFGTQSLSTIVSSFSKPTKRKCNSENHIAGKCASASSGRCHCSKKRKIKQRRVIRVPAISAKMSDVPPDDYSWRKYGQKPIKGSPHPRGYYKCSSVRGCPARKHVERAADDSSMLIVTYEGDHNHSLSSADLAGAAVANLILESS

Q: Does B1 bind?
A: no binding

Molecular target: T1, BnWRKY15
Experiment: EMSA; Beyotime EMSA binding buffer (composition, pH not stated), 40 nM Cy5 DNA probe, room temperature; 6% native PAGE in ice water bath
Conditions: protein: recombinant; tags: 6xHis (pET-32a fusion); label: Cy5

Q: Does B2 bind?
A: binds

Q: Does B3 bind?
A: binds

Q: Does B4 bind?
A: binds

Q: Does B5 bind?
A: binds

Q: Does B6 bind?
A: binds

Q: Does B7 bind?
A: binds

Q: Does B8 bind?
A: no binding

Q: Does B9 bind?
A: binds

Q: Does B10 bind?
A: binds

Molecular target: T1, BnWRKY15
Experiment: EMSA; competed by unlabelled 33probe (12.5x, 25x); Beyotime EMSA binding buffer (composition, pH not stated), 40 nM Cy5 DNA probe, room temperature; 6% native PAGE in ice water bath
Conditions: protein: recombinant; tags: 6xHis (pET-32a fusion); label: Cy5

Q: Does B11 bind?
A: binds

Molecular target: T1, BnWRKY15
Experiment: EMSA; alone; also outcompetes equal BnWRKY33; Beyotime EMSA binding buffer (composition, pH not stated), 40 nM Cy5 DNA probe, room temperature; 6% native PAGE in ice water bath
Conditions: protein: recombinant; tags: 6xHis (pET-32a fusion); label: Cy5

Q: Does B12 bind?
A: binds
